Assay results: the supplement of paper PMC10065799, “High-throughput profiling of sequence recognition by tyrosine kinases and SH2 domains using bacterial peptide display” (eLife, 2023)

How the values were obtained:
FGFR3 = FGFR3 (UniProt P22607); assay: phosphorylation enrichment, bacterial display (enrichment ratio); higher = better substrate or ligand; peptides without Tyr show the background
EPHB2 = EPHB2 (UniProt P29323); assay: as above
Jak2 = Jak2 (UniProt O60674); assay: as above
AncSZ = assay: as above
Fer (mouse) = assay: as above
EPHB1 = EPHB1 (UniProt P54762); assay: as above
c-Src = assay: as above
Hck = Hck (UniProt P08631); assay: as above
c-Abl (mouse) = assay: as above
MERTK = MERTK (UniProt Q12866); assay: as above
FGFR1 = FGFR1 (UniProt P11362); assay: as above
Fyn = Fyn (UniProt P06241); assay: as above
Fes = Fes (UniProt P07332); assay: as above
SHP2-C SH2 = assay: SH2 binding enrichment of the phosphorylated peptide, bacterial display (enrichment ratio); higher = better substrate or ligand; peptides without Tyr show the background
c-Src SH2 = assay: as above
Grb2 SH2 = Grb2 SH2 (UniProt P62993); assay: as above
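Throughout, for SH2 binding enrichment of the phosphorylated peptide, bacterial display: peptide library displayed on the E. coli surface as eCPX fusions, selected cells deep-sequenced, score is each peptide's frequency after selection divided by its frequency in the input.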
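Throughout, for phosphorylation enrichment, bacterial display: 11-residue human phosphosite peptides and single-mutation variants displayed on the E. coli surface, counted by deep sequencing, each peptide's frequency after selection divided by its frequency in the unselected input library; frequency after pTyr selection over input frequency; kinase dosed for 20-30% of maximal phosphorylation in three min.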

Chain of FGFR1 (P11362 whole entry, looked up): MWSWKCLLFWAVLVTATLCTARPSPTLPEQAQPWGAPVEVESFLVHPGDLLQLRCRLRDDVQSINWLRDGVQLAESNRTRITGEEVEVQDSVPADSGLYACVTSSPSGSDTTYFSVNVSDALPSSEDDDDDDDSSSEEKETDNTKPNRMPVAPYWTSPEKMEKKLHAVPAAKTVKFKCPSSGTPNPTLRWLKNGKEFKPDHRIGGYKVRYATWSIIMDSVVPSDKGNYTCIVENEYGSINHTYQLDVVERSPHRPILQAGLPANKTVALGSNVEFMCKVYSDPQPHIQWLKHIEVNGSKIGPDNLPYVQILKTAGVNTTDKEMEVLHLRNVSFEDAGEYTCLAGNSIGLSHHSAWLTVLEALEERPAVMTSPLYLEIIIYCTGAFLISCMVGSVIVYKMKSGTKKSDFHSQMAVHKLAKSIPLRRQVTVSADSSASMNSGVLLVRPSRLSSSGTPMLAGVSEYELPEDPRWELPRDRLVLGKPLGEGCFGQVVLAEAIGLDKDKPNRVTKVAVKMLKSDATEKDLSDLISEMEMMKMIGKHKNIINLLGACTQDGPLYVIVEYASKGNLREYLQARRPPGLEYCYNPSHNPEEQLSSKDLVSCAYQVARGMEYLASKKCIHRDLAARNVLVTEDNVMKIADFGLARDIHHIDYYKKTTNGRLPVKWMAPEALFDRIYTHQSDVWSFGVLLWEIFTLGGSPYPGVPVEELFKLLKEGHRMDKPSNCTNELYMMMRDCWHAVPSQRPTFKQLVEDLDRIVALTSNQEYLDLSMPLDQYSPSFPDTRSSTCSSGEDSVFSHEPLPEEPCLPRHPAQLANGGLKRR
Chain of Fes (P07332 whole entry, looked up): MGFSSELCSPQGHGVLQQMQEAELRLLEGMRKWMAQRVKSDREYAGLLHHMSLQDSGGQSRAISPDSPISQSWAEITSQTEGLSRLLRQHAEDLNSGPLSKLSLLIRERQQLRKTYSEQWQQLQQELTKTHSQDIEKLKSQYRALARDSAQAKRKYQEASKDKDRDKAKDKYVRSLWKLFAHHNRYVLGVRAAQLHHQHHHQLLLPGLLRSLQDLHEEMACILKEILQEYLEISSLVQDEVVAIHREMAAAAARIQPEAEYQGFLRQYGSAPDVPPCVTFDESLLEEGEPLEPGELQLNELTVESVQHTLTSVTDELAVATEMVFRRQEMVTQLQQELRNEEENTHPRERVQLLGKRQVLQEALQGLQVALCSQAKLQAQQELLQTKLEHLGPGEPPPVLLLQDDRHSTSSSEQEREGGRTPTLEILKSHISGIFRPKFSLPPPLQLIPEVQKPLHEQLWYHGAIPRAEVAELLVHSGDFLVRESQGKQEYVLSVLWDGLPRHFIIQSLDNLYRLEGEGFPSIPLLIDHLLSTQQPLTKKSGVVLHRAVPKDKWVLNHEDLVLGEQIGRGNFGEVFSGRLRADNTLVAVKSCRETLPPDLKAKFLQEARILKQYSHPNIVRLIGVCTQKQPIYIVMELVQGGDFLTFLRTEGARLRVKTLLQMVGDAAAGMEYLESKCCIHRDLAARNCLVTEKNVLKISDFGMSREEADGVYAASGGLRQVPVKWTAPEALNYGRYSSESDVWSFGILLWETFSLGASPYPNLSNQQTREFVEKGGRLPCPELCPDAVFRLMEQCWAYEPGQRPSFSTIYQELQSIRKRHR
Chain of Jak2 (O60674 whole entry, looked up): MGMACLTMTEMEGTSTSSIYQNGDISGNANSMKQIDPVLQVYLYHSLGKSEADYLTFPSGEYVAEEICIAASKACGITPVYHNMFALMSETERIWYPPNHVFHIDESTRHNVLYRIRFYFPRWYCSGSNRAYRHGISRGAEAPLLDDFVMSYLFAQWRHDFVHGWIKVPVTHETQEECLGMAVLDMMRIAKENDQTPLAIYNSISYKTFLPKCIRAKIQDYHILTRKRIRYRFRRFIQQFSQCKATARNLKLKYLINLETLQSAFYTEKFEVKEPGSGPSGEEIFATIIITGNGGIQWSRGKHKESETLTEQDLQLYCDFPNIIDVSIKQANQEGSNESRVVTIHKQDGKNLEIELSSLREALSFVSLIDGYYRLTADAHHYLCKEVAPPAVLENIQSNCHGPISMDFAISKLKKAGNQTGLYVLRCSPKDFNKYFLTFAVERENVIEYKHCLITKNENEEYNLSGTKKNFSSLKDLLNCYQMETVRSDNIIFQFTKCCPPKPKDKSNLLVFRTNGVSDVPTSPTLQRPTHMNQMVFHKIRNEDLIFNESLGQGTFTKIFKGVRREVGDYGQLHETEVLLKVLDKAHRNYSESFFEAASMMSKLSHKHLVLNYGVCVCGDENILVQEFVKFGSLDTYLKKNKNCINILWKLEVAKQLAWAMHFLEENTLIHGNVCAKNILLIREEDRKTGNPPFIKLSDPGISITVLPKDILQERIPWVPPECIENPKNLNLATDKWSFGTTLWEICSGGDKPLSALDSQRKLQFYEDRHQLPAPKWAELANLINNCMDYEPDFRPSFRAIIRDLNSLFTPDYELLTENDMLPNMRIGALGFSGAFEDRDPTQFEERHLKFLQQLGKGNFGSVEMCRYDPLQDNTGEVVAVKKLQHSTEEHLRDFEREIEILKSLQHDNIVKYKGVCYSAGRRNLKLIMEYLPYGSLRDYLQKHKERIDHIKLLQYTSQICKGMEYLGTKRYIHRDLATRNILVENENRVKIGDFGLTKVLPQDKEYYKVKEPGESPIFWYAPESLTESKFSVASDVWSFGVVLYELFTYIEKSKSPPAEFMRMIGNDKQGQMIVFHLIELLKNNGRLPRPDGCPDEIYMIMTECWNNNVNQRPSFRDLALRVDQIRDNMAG
Chain of MERTK (Q12866 whole entry, looked up): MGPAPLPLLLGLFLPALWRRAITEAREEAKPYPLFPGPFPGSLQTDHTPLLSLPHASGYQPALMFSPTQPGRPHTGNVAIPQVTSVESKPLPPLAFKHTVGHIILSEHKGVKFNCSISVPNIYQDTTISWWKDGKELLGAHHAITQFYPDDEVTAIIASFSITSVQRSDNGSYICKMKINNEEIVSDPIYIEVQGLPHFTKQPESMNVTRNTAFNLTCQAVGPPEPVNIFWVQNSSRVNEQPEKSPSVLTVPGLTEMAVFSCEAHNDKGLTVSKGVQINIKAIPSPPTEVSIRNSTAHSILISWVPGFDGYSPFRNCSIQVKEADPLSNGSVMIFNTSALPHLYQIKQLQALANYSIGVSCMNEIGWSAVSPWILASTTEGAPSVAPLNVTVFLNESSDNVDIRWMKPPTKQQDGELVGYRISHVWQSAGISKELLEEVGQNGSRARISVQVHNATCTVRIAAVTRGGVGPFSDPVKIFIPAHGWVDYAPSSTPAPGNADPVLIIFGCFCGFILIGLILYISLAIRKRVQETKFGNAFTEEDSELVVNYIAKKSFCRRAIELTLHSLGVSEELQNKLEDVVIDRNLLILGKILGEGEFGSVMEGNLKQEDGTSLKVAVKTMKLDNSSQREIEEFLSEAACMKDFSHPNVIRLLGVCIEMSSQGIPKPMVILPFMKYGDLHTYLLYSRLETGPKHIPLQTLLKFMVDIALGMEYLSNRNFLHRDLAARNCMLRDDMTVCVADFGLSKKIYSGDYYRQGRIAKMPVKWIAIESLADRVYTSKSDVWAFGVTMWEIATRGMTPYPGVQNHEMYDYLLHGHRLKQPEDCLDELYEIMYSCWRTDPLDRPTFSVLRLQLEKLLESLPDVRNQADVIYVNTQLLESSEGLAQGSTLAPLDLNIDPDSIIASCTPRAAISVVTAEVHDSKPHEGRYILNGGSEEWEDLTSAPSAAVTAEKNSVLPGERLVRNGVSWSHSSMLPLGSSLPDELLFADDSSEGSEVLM
Chain of EPHB2 (P29323 whole entry, looked up): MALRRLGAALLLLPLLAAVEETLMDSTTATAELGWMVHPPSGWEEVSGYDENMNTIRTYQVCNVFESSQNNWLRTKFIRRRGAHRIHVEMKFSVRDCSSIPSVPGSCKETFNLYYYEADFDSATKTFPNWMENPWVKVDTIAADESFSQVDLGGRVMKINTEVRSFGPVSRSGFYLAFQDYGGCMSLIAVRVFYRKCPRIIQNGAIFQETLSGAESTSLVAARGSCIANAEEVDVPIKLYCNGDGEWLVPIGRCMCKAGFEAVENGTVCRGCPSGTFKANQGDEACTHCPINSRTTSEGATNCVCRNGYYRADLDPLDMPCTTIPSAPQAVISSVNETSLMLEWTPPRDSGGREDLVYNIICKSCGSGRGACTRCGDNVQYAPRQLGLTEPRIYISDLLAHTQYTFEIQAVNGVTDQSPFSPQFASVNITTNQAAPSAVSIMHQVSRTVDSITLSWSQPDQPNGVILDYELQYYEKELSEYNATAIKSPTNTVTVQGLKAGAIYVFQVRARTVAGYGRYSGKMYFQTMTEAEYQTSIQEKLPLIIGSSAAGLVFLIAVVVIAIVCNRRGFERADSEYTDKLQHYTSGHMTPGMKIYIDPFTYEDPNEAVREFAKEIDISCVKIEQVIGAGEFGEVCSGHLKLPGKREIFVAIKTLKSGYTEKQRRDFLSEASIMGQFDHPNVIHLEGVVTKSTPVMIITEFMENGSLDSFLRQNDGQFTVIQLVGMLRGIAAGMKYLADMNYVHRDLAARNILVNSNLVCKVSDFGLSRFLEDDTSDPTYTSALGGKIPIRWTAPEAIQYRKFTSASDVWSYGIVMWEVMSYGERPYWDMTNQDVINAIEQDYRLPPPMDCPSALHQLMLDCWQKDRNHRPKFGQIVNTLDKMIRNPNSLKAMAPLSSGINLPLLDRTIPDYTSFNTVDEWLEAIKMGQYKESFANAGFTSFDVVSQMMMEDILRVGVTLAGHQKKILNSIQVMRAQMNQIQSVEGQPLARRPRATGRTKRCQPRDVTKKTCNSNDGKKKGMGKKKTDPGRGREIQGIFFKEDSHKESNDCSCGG
Chain of Grb2 SH2 (P62993 whole entry, looked up, the tested form may be a part): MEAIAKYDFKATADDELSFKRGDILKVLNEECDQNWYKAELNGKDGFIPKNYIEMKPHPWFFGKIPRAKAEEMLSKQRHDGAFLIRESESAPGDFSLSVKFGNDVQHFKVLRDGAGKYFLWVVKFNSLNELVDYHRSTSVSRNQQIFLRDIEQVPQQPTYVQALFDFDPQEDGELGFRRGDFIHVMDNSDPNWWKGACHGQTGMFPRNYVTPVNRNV

| Sequence | phosphorylation enrichment (FGFR3) | phosphorylation enrichment (EPHB2) | phosphorylation enrichment (Jak2) | phosphorylation enrichment (AncSZ) | phosphorylation enrichment (Fer (mouse)) | phosphorylation enrichment (EPHB1) | phosphorylation enrichment (c-Src) | phosphorylation enrichment (Hck) | phosphorylation enrichment (c-Abl (mouse)) | phosphorylation enrichment (MERTK) | phosphorylation enrichment (FGFR1) | phosphorylation enrichment (Fyn) | phosphorylation enrichment (Fes) | SH2 binding enrichment (SHP2-C SH2) | SH2 binding enrichment (c-Src SH2) | SH2 binding enrichment (Grb2 SH2) |
| --- | --- | --- | --- | --- | --- | --- | --- | --- | --- | --- | --- | --- | --- | --- | --- | --- |
| MCITQYKRESQ [PRNP_Y218_E219K] | 0.606 | 0.587 | 0.736 | 0.875 | 0.501 | 0.384 | 0.42 | 0.433 | 0.454 | 0.475 | 0.443 | 0.519 | 0.837 | 1.08 | 0.957 | 0.897 |
| GGDGSYVSVPS [TNNI3K_Y425] | 0.592 | 0.431 | 0.495 | 0.564 | 0.415 | 0.382 | 0.347 | 0.412 | 0.487 | 0.338 | 0.419 | 0.443 | 0.565 | 0.728 | 1.83 | 0.69 |
| ADRSCYDLSCR [GARS1_Y467_H472R] | 0.55 | 0.591 | 0.8 | 0.849 | 0.474 | 0.487 | 0.616 | 0.594 | 0.847 | 0.445 | 0.499 | 0.572 | 0.835 | 0.779 | 1.17 | 1.06 |
| FADIAYNYRQG [PAH_Y166_H170Q] | 0.728 | 0.454 | 0.661 | 0.75 | 0.471 | 0.713 | 0.522 | 0.507 | 0.594 | 0.43 | 0.412 | 0.482 | 0.872 | 0.669 | 0.469 | 1.02 |
| ARKRKYFKKHE [NFIX_Y40] | 0.591 | 0.535 | 0.477 | 0.602 | 0.281 | 0.511 | 0.56 | 0.605 | 0.64 | 0.472 | 0.554 | 0.561 | 0.653 | 0.409 | 0.259 | 0.911 |
| GGKYSYLKVGH [GRM3_Y480] | 0.536 | 0.394 | 0.604 | 0.678 | 0.503 | 0.344 | 0.4 | 0.388 | 0.666 | 0.513 | 0.404 | 0.497 | 0.616 | 1.29 | 1.79 | 1.23 |
| AELVQYFMEHH [PTPN11_Y80_YF] | 0.762 | 0.545 | 0.695 | 1.02 | 0.463 | 0.618 | 0.437 | 0.66 | 0.547 | 0.508 | 0.652 | 0.623 | 1.08 | 0.84 | 0.473 | 1.05 |
| CTTIHYIFMCN [TP53_Y234_N235I_YF] | 0.657 | 0.554 | 0.918 | 0.946 | 0.436 | 0.511 | 0.324 | 0.331 | 0.695 | 0.327 | 0.416 | 0.418 | 1.05 | 1.1 | 0.858 | 1.19 |
| LTERGYSFTTT [ACTB_Y198] | 0.78 | 0.492 | 0.756 | 0.837 | 0.554 | 0.472 | 0.46 | 0.432 | 0.586 | 0.408 | 0.504 | 0.456 | 0.758 | 0.654 | 0.596 | 0.746 |
| SVVVPFEPPEV [TP53_Y220_Y220F] | 0.668 | 0.628 | 1.06 | 1.04 | 0.467 | 0.578 | 0.552 | 0.502 | 0.866 | 0.39 | 0.533 | 0.41 | 1.22 | 0.537 | 0.469 | 0.807 |
| PPPELYFVKVD [TERT_Y707] | 1.28 | 0.49 | 2.84 | 1.76 | 0.626 | 0.629 | 1.55 | 1.4 | 1.19 | 2.69 | 0.638 | 0.962 | 1.81 | 1.04 | 0.534 | 1.18 |
| GYRVCYTPDSR [PTPRF_Y451_Y450C] | 0.739 | 0.592 | 0.975 | 1.07 | 0.505 | 0.635 | 0.522 | 0.547 | 0.794 | 0.434 | 0.492 | 0.498 | 1.26 | 0.717 | 0.591 | 0.769 |
| LQTFRYHGHSM [PDHA1_Y289_YF] | 0.999 | 0.61 | 0.876 | 0.664 | 0.592 | 0.843 | 0.761 | 0.616 | 0.775 | 0.716 | 0.68 | 0.948 | 1.06 | 1.03 | 0.499 | 0.901 |
| CTTIHYNFMRN [TP53_Y234_C238R_YF] | 0.993 | 0.626 | 0.889 | 1.03 | 0.571 | 0.605 | 0.449 | 0.577 | 0.767 | 0.489 | 0.567 | 0.568 | 1.07 | 0.896 | 0.773 | 0.949 |
| ATGGFYSFGGG [KRT24_Y120_YF] | 0.502 | 0.499 | 0.706 | 0.678 | 2.46 | 0.7 | 1.83 | 1.83 | 0.562 | 7.38 | 0.481 | 3.93 | 0.953 | 0.569 | 0.425 | 0.749 |
| KIDAKYKKKIE [WDR19_Y1230] | 0.368 | 0.373 | 0.594 | 0.698 | 0.401 | 0.27 | 0.346 | 0.408 | 0.631 | 0.418 | 0.368 | 0.308 | 0.891 | 0.602 | 0.367 | 0.601 |
